Experiment [1] deals with T1, Human PTK7 protein (Catalog No. PT7-H52H3, Acrobiosystems) (human, UniProt Q13308 31-704).
T1 construct: Bought protein
T1 sequence (looked up): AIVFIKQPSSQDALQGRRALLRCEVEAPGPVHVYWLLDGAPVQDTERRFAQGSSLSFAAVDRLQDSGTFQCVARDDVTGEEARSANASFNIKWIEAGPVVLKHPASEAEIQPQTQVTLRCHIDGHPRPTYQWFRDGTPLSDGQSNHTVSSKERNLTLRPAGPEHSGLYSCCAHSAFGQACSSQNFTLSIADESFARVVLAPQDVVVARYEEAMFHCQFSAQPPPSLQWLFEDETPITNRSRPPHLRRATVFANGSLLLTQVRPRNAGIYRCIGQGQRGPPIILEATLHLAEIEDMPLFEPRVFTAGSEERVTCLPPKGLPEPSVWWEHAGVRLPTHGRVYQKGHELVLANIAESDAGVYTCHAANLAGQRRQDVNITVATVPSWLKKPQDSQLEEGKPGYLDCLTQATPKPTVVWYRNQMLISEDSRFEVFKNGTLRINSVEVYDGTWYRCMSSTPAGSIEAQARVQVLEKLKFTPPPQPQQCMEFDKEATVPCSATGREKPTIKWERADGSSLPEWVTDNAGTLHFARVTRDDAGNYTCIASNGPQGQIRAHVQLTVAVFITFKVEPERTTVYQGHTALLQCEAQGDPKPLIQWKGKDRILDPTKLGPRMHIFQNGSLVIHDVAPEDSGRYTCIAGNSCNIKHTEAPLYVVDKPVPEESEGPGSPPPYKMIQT
The experiment in a line: ELISA, PTK7 protein immobilized on the plate, peroxidase anti-human IgG, OD450. The method, then: (§1) Human PTK7 protein (Catalog No. PT7-H52H3, Acrobiosystems), monkey PTK7 protein (Catalog No. PT7-C52H3, Acrobiosystems), and murine PTK7 protein (Catalog No. PT7-M52H3, Acrobiosystems) were incubated at 4° C. overnight and immobilized onto a 96-well plate. The plate was then blocked by incubating at 37° C. with 1% BSA in PBS for 1 h. After blocking, the plate was washed 3 times with PBST (PBS containing 0.05% Tween 20). Serial dilutions of anti-PTK7 antibody as prepared in Example 2 of the present disclosure was prepared in a binding buffer (PBS containing 0.05% Tween20 and 0.5% BSA) and incubated with the immobilized proteins at 37° C. for 1 h. After binding, the plate was washed 3 times with PBST, incubated with peroxidase-labeled donkey anti-human IgG (Jackson ImmunoResearch) diluted at 1/15,000 in the binding buffer at 37° C. for 1 h, washed again, developed with TMB and terminated with 1M H₂SO₄. The absorbance at 450 nm-620 nm was measured.

The target in experiment [2] is T2, monkey PTK7 protein (Catalog No. PT7-C52H3, Acrobiosystems) (monkey, UniProt A0A2K5VNQ6 31-704).
T2 construct: Bought protein; not shown: The vendor's purification tag, probably a C-terminal His tag
T2 sequence: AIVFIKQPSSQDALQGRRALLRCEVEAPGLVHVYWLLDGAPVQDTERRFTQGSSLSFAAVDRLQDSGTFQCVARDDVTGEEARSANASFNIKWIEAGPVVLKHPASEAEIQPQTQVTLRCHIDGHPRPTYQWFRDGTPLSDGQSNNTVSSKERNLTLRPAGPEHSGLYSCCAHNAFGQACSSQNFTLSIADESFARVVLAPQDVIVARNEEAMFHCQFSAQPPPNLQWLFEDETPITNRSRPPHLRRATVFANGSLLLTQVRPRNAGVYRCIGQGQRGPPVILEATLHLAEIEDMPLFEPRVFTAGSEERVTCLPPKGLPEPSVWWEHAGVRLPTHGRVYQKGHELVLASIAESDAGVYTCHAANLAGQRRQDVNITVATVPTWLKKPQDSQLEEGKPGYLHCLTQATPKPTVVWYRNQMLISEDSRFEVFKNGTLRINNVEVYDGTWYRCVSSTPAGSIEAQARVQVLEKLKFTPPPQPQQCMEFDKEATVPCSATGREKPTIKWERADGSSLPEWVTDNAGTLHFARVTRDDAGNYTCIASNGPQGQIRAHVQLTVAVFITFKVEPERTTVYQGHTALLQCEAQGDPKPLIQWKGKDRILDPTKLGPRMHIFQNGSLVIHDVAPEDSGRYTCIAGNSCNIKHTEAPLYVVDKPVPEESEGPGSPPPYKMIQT
The experiment is described as above. The method, then:
as §1

Experiment [3] has as its target T3, murine PTK7 protein (Catalog No. PT7-M52H3, Acrobiosystems) (murine, UniProt Q8BKG3 23-696).
T3 construct: Bought protein; also called mouse PTK7
T3 sequence (looked up): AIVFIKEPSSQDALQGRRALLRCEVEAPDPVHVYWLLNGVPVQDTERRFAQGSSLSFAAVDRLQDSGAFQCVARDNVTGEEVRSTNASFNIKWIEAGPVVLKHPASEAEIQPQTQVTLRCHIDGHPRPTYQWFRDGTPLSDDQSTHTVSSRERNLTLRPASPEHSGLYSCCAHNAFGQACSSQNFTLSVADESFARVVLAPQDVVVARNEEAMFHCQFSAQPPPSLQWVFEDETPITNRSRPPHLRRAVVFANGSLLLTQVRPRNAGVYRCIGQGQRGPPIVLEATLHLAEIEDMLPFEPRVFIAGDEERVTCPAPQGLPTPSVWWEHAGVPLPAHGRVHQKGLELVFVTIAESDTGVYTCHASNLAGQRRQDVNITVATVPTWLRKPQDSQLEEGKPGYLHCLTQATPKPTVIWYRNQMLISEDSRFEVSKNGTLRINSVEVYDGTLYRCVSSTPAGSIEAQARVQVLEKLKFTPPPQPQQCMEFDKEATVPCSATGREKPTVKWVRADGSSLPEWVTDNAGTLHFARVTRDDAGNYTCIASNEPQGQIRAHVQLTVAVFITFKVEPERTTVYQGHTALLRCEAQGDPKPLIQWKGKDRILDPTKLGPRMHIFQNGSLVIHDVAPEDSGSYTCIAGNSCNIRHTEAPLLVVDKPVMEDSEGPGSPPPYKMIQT
The experiment is described as above. The method, then: as §1

The target in experiment [4] is T4, PTK7 on the SK-OV-3 cell line (human ovarian cancer cells) (human, UniProt Q13308 31-1070).
T4 construct: whole, on cells
T4 sequence (looked up): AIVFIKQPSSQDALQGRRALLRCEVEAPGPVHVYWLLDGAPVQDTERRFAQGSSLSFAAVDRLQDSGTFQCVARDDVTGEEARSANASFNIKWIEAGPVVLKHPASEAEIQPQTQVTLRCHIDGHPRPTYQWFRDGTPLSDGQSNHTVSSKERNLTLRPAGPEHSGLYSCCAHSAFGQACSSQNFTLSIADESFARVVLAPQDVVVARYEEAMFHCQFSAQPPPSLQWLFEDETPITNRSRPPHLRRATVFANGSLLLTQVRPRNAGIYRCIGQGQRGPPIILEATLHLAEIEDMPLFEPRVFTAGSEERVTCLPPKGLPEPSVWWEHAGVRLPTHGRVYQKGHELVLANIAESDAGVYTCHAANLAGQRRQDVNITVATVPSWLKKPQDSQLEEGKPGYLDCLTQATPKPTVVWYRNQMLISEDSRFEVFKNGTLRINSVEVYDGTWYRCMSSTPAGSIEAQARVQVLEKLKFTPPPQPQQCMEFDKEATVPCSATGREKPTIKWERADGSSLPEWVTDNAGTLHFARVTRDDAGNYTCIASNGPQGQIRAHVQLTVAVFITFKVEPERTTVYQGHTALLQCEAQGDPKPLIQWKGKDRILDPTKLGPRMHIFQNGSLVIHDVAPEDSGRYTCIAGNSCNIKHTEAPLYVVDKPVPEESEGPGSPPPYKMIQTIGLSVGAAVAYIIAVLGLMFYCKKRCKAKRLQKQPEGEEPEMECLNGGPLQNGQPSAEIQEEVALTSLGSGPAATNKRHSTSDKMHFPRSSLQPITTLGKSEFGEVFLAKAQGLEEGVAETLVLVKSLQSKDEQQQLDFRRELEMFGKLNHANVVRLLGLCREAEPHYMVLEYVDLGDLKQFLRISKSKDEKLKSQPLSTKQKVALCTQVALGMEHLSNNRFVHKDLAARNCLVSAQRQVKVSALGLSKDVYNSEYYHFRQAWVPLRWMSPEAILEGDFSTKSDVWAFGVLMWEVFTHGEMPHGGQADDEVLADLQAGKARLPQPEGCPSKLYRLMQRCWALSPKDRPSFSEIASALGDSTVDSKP
The experiment in a line: flow cytometry on SK-OV-3 cells, FITC goat anti-human secondary antibody, MFI. The method, then:
SK-OV-3 (human ovarian cancer cells, ATCC, Catalog No. HTB-77) was digested with trypsin in a culture dish, and the digested cells were centrifuged at 1000 rpm for 5 min and then blocked with 10% goat serum (purchased from Beijing Solarbio Science & Technology Co. Ltd., Item No. SL038) for 30 min. The anti-PTK7 antibodies as prepared in Example 2 of the present disclosure were diluted in a 3-fold gradient with a starting concentration of 500 nM. At the end of dilution, the gradient diluted anti-PTK7 antibodies were added to the cells, incubated for 1 h, and washed twice with PBS. Then, FITC-labeled goat anti-human secondary antibody (purchased from Jackson ImmunoResarch, Item No. 109-545-008) was added at 1:500, incubated for 1 h, and finally washed twice with PBS. The results were analyzed by flow cytometry.

Where a chain is given by its changes, count along the chain named.

B1: human-murine chimeric PTK7 antibody ch13 (antibody, V domains shown)
VH: QVQLQQSGAELVRPGVSVKISCKGSGYTFTDYGMHWLKQSHAKSLEWIGVISPYYGDVTYNQKFKGKATMTVDKSSSTAYMELARLTSEDSAIYYCARGMGYWGQGTSVTVSS
VL: DVQITQSPSYLAASPGETITINCRASQSISKYLAWYQEKPGKTNKLLIYSGSTLQSGIPSRFSGSGSGTDFTLTISSLEPEDFAMYYCQQHNEYPWTFGGGTKLEIK
Turning to B1, the EC50 in experiment [1] stood at 0.0571 nM; in experiment [2], 0.0472 nM; in experiment [4], 0.189 nM. Also, in experiment [3], the binding result is “no binding”.

B2: humanized PTK7 antibody Hu13H3L3 (antibody, V domains shown)
VH: QVQLVQSGAEVKKPGASVKISCKGSGYTFTDYGMHWLKQAPGQGLEWIGVISPYYGDVNYNQKFQGRATMTVDKSISTAYMELSRLRSDDTAVYYCARGMGYWGQGTLVTVSS
VL: DVQITQSPSFLSASVGDRVTITCRASQSISKYLAWYQQKPGKAPKLLIYSGSTLQSGVPSRFSGSGSGTEFTLTISSLQPEDFAMYYCQQHNEYPWTFGQGTKVEIK
Consider B2, for which, in experiment [4], a half-maximal effect (EC50) was put at 0.156 nM.

B3: humanized PTK7 antibody Hu13H3L5 (antibody, V domains shown)
VH: B2 VH
VL: B2 VL with F10Y, V15P, V19I, P44N
Molecule B3 yielded an EC50 in experiment [4] of 0.161 nM.

B4: humanized PTK7 antibody Hu13H2L0 (antibody, V domains shown)
VH: B2 VH with I20V, K38R, I48M, A68V, V72R, A92V
VL: B2 VL with V2I, I4L, M85T
B4 displayed an EC50 in experiment [4] of 0.163 nM.

B5: humanized PTK7 antibody Hu13H3L0 (Ab13) (antibody, V domains shown)
VH: B2 VH
VL: B2 VL with V2I, I4L, M85T
With B5, a half-maximal effect in experiment [4] (EC50) was put at 0.19 nM.

B6: humanized PTK7 antibody Hu13H2L3 (antibody, V domains shown)
VH: B2 VH with I20V, K38R, I48M, A68V, V72R, A92V
VL: B2 VL
B6: the EC50 in experiment [4] stood at 0.213 nM.

As a reminder, the EC50 is the concentration that produces a half-maximal response.

For the origin of these results see patent US20250223378A1 (MABCARE THERAPEUTICS, published 2025).
